In patent US20220386594A1 (IBI AG INNOVATIVE BIO INSECTICIDES, published 2022):

T1: Helicoverpa armigera V-ATPase subunit c (Helicoverpa armigera)
T1 construct: also called V-ATPases Subunit C; ATPase V subunit c
T1 chain: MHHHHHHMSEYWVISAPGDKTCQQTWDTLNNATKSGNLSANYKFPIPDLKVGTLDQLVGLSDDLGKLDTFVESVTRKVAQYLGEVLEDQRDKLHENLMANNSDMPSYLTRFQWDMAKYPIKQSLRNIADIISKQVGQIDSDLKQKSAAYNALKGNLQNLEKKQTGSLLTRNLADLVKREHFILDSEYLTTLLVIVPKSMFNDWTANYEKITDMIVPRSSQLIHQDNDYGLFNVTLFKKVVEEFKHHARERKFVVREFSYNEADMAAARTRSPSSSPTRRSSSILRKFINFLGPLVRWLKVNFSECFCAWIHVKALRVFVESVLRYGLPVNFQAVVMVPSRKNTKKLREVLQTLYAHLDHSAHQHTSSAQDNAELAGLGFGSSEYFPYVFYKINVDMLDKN

T2: Helicoverpa armigera cytochrome p450 monooxygenase (Helicoverpa armigera, UniProt Q95031 23-504)
T2 construct: the tag is not part of the printed entry; also called target P450 antigen
T2 chain: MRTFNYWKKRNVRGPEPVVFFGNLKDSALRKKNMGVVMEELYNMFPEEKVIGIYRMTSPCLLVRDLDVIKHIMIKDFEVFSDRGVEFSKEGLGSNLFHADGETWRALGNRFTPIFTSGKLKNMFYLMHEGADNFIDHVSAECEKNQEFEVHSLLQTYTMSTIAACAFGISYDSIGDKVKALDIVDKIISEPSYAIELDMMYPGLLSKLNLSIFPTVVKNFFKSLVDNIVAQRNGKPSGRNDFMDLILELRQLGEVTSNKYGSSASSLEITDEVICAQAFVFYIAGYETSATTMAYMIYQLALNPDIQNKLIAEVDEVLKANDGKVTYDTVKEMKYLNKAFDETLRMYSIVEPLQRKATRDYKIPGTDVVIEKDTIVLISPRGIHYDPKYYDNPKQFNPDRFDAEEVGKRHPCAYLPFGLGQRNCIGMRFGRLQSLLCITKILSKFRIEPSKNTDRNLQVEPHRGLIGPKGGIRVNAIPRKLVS

T3: Helicoverpa armigera chitin deacetylase (Helicoverpa armigera)
T3 construct: the tag is not part of the printed entry; also called CDA; target CDA antigen
T3 chain: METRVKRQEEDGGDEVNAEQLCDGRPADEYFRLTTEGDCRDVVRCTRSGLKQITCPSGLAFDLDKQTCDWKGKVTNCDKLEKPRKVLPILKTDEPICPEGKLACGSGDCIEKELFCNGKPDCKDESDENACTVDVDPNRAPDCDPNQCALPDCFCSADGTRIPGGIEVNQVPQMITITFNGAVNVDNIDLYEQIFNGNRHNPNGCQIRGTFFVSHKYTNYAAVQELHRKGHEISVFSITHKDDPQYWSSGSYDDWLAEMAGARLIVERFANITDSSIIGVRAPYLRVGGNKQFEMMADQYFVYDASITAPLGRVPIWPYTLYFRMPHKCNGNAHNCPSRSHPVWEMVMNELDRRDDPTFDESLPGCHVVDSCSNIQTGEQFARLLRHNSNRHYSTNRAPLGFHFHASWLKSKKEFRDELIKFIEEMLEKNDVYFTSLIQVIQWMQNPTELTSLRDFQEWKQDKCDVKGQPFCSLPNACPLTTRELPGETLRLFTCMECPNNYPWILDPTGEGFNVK

B1: VAT0101A (VHH)
VHH: QVQLQESGGGLVQAGGSLRLSCAASGSTFSGYIMSWFRQPPGKERELVAAITYVGSTYVEDSVKGRFTISRDNAKNTVSLQMNSLKPEDTAVYYCRAREGEQLDFWGQGTQVTVSS
notes: Llama nanobody, His-tagged, expressed in E. coli SHuffle T7; also called anti-VAT nanobody VAT0101A
B2: P45001A (VHH)
VHH: QVQLQESGGGLVQTGGSLRLSCAASGRTSRSYAMGWFRQAPGKERELVADIAWSDGRIYYSDSVKGRFTISRDNAKNTVYLEIDSLKPGDTAVYYCASRARGTVLYNYWGQGTQVTVSS
notes: Llama nanobody, His-tagged, expressed in E. coli SHuffle T7; also called anti-P450 nanobody P45001A
B3: P45003A (VHH)
VHH: QVQLQESGGGLVQAGDSLRLSCVASKRSFSSHAMGWFRQAPGKAREFVATISWNSGSTFYSDSSRGRFTISRDNGKNTLYLQMNSLKPEDTAVYYCAAASGRGITASDFRYDAWGQGTQVTVSS
notes: Llama nanobody, His-tagged, expressed in E. coli SHuffle T7; also called anti-P450 nanobody P45003A
B4: P45004 (VHH)
VHH: QVQLQESGGGLVQAGGSLRLSCAASGRTFSRINMGWFRQAPGKEREFVAVISWNSIADYADSVKARFTISRDNAKNTVYLQMNSLKPEDTAVYYCAASAPFRSKNPTLYLYWGRGTQVTVSS
notes: Llama nanobody, His-tagged, expressed in E. coli SHuffle T7; also called anti-P450 nanobody P45004
B5: CDA05 (VHH)
VHH: QVQLQESGGGLVQPGGSLRLSCTASGRTVSNYGMAWFRQVAGKERAFVAAINNRGDSKYYAESVKGRFTIARDNAKNTVYLQMNVLKPEDTAVYYCAADRRSLVRYEYNYWGQGTQVTVSS
notes: Llama nanobody, His-tagged, expressed in E. coli SHuffle T7; also called CDA5; anti-CDA nanobody CDA05
B6: CDA07A (VHH)
VHH: QVQLQESGGGLVQAGGSLRLSCVASGRTFGNYGLAWFRQPPGKEREFVAAINNRGGNTYYADSVKGRFTISRDNAANTLYLQMSSLKPEDTAVYYCAADRTSLHSYRYTYWGQGTQVTVSS
notes: Llama nanobody, His-tagged, expressed in E. coli SHuffle T7; also called CDA7a; CDA7A
B7: CDA10 (VHH)
VHH: QVQLQESGGGLVQTGESLRLSCAASGRTLSSYTMGWFRQAPGKEREIVAASSWSGGRTYYADSVKGRFTMSRNNAENTVYLQMNSLNPEDTAVYYCAADSSRAPRTYNYWGQGTQVTVSS
notes: Llama nanobody, His-tagged, expressed in E. coli SHuffle T7; also called anti-CDA nanobody CDA10

Assays:
[1] = target: T1, Helicoverpa armigera V-ATPase subunit c; test: ELISA, plate coated with the target antigen
[2] = target: T2, Helicoverpa armigera cytochrome p450 …; test: ELISA, plate coated with 10 ug/ml target protein, 2 ug/ml nanobody, anti-VHH-HRP, A450
[3] = target: T3, Helicoverpa armigera chitin deacetylase; test: as above

Row | Binder | binding result [2] | binding result [3] | other results
1 | B1 |  |  | binding result [1]: binds
2 | B2 | binds |  | 
3 | B3 | binds |  | 
4 | B4 | binds |  | 
5 | B5 |  | binds | 
6 | B6 |  | binds | 
7 | B7 |  | binds | 
